Columns and labels:
M2 macrophages = assay: Caspase-3/7 induction, IncuCyte, M2; assay type: cell-based, human; details: over 6 days, BYbe 250-2 nM, Camptothecin, Staurosporine 5 μM
Procedure: (§1) Human PBMC derived from blood leukocyte platelet-apheresis cones (NHSBT Oxford) were banked as frozen aliquots. Prior to an assay being performed, 2 vials of frozen cells, each containing 5×10^7 cells in 1 ml, were thawed in a 37° C. water bath and then added to 50 ml complete media (RPMI 1640+2 mM GlutaMAX+1% Pen/Strep, all previous supplied by Invitrogen, +10% Fetal Bovine Serum (FBS), Sigma Aldrich). Cells were spun (500 g, 5 min, at RT) and re-suspended in 30 ml complete media to wash and spun again. Cells were resuspended in 20 ml MACS buffer (PBS, pH 7.2, 0.5% bovine serum albumin (BSA), and 2 mM EDTA, Sigma Aldrich) and counted on a ChemoMetec NucleoCounter NC-3000 to determine concentration and viability. PBMCs from one donor (UCB-Cones 802) was used in this assay. Monocyte isolation was performed using the Pan Monocyte Isolation Kit (Miltenyi Biotec, cat no. 130-096-537) and LS columns (Miltenyi Biotec, cat no 130-042-401) according to manufacturer's instructions. 100 μl of cells were removed and stored on ice to check monocyte purity post isolation. Isolated cells were stained with BV421 mouse anti-human CD14 (BD Biosciences, cat no. 563743) to check for purity of monocytes using FACS. M-CSF (Sigma Aldrich, cat no. SRP3110) and GM-CSF (R&D Systems, cat no. 215-GM/CF) were prepared at 100 μg/ml. Cells were prepared in M1 media (complete media+50 ng/ml GM-CSF) or M2 media (complete media+50 ng/ml M-CSF) at a concentration of 2.5×10^5 cells/ml. 200 μl cells were plated into two Corning 96 well Black polystyrene microplates (Sigma Aldrich) and incubated at 37° C., 5% CO2. Following a 3-day incubation at 37° C., 5% CO2, the plate was spun (500 g, 5 min, RT), buffer was aspirated, the cells were washed once with PBS and then resuspended in 200 μL of M1 media or M2 media. […] The caspase dye was measured with the green laser (350 ms) and the cytotox dye was measured with a red laser (650 ms). The green dye signal was analysed using Incucyte® Zoom2016B. […]

M1 macrophages = assay: Caspase-3/7 induction, IncuCyte, M1; assay type: cell-based, human; details: over 6 days, BYbe 250-2 nM, Camptothecin, Staurosporine 5 μM
Procedure: as §1

CD45 ECD = molecular target: T1, CD45 ECD (Homo sapiens, UniProt P08575); assay: Mass photometry of mixture of CD45 ECD and BYbe; assay type: binding; details: for Theoretical mass (kDa): based on observed masses of 62 and 76 kDa
T1 construct: extracellular domain of CD45 (UniProtKB—P08575, residue positions 225-573); TEV cleavage site (C); 10-His tag (C); made in house; host or cells: HEK293
T1 sequence (P08575 225-573): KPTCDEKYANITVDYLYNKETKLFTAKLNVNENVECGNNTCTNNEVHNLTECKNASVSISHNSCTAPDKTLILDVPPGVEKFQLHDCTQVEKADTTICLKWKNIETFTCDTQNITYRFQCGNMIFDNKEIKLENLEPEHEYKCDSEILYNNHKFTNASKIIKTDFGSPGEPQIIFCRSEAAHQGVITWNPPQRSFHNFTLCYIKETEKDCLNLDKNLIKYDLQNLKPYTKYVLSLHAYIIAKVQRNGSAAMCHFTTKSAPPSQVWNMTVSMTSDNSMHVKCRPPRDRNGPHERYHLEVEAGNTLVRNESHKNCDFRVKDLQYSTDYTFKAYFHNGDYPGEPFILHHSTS
Procedure: Data were acquired on a RefeynOneMP mass photometer (Refeyn Ltd, Oxford, UK) using AcquireMP (Refeyn Ltd, v2.2.1) software and images were processed and analysed using DiscoverMP (v2.3.dev12) software.
Measurements were performed using clean glass coverslips (High Precision coverslips, No. 1.5, 24×50 mm, Marienfeld) mounted with silicon gaskets (CultureWell™ Reusable Gaskets, Grace biolabs) cut in to 2×2 well sections. Protein stocks were diluted directly in Dulbecco's Phosphate-Buffered Saline (DPBS, ThermoFisher). Typical working concentrations of protein complexes were 1-100 nM, depending on the dissociation characteristics of the protein complexes.
The instrument lens was cleaned with Iso-propyl alcohol (IPA), allowed to dry and a drop of Olympus Low Auto Fluorescence Immersion Oil (NC0297589, ThermoFisher) placed on the lens prior to positioning the microscope coverslip with sample in the light stage. To find focus, 15 μl of fresh DPBS was pipetted into a silicone well, the focal position was identified and secured in place with an autofocus system based on total internal reflection for the entire measurement. For each acquisition, 5 μl of diluted protein was introduced into the well, mixed thoroughly (before autofocus stabilization), and movies of 90 s duration recorded. Each sample was measured once, with a new well and buffer used for each measurement. The mixture of CD45 ECD and 4133-6294 BYbe was not pre-incubated and therefore complexing occurred when the 2 proteins were added into the well.

B1: 4133-6294 BYbe: anti-CD45 BYbe (Fab-scFv): 4133 Fab HC-G4S linker-6294 scFv heavy chain paired with 4133 light chain (antibody)
heavy: QEQLVESGGGLVQPEGSLTLTCTASGFSFSGNYYMCWVRQAPGKGLEWIGCLYTGSSGSTYYASWAKGRFTISKTSSTTVTLQMTSLTAADTATYFCARDLGYEIDGYGGLWGQGTLVTVSSGQPKAPSVFPLAPCCGDTPSSTVTLGCLVKGYLPEPVTVTWNSGTLTNGVRTFPSVRQSSGLYSLSSVVSVTSSSQPVTCNVAHPATNTKVDKTVAPSTCSKPGGGGSGGGGSEVQLVESGAELARPGASVKMSCKASGYTFTSYTMHWVKQRPGQCLEWIGYINPSSGYTEYNQKFKDKTTLTADKSSSTAYLQLSSLTSEDSAVYYCARVGDGFYPSWLAYWGQGTLVTVSSGGGGSGGGGSGGGGSGGGGSDIQMTQSPKFLLVSAGDRVTITCKASQSVRNDVAWYQQKPGQSPKLLIFYASKRYTGVPDRFTGSGYGTDFTFTISTVQAEDLAVYFCQQDYSSPTTFGCGTKLEIK
light: AQVLTQTPSPVSAVVGGTVSISCQASQSVYNNNNLSWYQQKPGQPPKLLIYDASKLASGVPSRFKGSGSGTQFTLTISGVQCDDAATYYCLGGYYSSGWYFAFGGGTKVVVKRTPVAPTVLIFPPAADQVATGTVTIVCVANKYFPDVTVTWEVDGTTQTTGIENSKTPQNSADCTYNLSSTLTLTSTQYNSHKEYTCKVTQGTTSVVQSFNRGDC
levels of Caspase-3/7 (M2 macrophages): in-line with NegCtrl BYbe-treated and untreated macrophages | levels of Caspase-3/7 (M1 macrophages): in-line with NegCtrl BYbe-treated and untreated macrophages | Observed mass (kDa) (CD45 ECD; 1× (CD45 + BYbe) complex in mixture of CD45 ECD and 4133-6294 BYbe): 136 kDa | Theoretical mass (kDa) (CD45 ECD; 1× (CD45 + BYbe)): 138 kDa | Observed mass (kDa) (CD45 ECD; 2× (CD45 + BYbe) complex in mixture of CD45 ECD and 4133-6294 BYbe): 274 kDa | Theoretical mass (kDa) (CD45 ECD; 2× (CD45 + BYbe)): 276 kDa | Observed mass (kDa) (CD45 ECD; 3× (CD45 + BYbe) complex in mixture of CD45 ECD and 4133-6294 BYbe): 415 kDa | Theoretical mass (kDa) (CD45 ECD; 3× (CD45 + BYbe)): 414 kDa | Observed mass (kDa) (CD45 ECD; 4× (CD45 + BYbe) complex in mixture of CD45 ECD and 4133-6294 BYbe): 555 kDa | Theoretical mass (kDa) (CD45 ECD; 4× (CD45 + BYbe)): 552 kDa

— patent US20230374148A1, “BINDING MOLECULES THAT MULTIMERISE CD45” (UCB BIOPHARMA SRL, priority 2020, published 2023)
